Measurements published in patent US20190284258A1, “HAEMADIPSA SYLVESTRIS ANTITHROMBOTIC PEPTIDE SYLVESTIN AND USE THEREOF” (priority 2016, published 2019).

Target: kallikrein
Test: enzyme inhibition kinetics, chromogenic substrate, OD 405 nm

B1: Haemadipsa sylvestris antithrombotic peptide Sylvestin (peptide)
peptide: TSEPVCACPKMLFWVCGKDGETYTHPCIAKCHNVEVEHDGKCK
modifications: not checked
- Ki: 17.8 nM
